According to patent publication US7470669B2, “Isolated polypeptide comprising a leptin fragment” (Serono Genetics Institute, S.A., priority 1999, dated 2008):

Assays:
LSR = assay: 125I-chylomicron binding to primary rat hepatocytes; type: cell-based; conditions: 20 ng/mL leptin with 0.5 mM oleate
Description: FIGS. 6A, 6B, and 6C show the effect of leptin on ^125I-LDL and ^125I-chylomicron binding to LSR in primary cultures of rat hepatocytes. For FIG. 6A, primary cultures of rat hepatocytes (48 hours after plating) were incubated at 37° C. for 30 min in the absence (□) or presence (▪) of 50 ng/mL leptin in Buffer A, followed by a 20 min incubation at 37° C. with 0.5 mM oleate. The cells were then washed with ice-cold PBS, precooled for 10 min, and then incubated for 1 h at 4° C. with increasing concentrations of ^125I-LDL in Buffer A. Cells were washed, were lysed in 0.1 N NaOH and were counted for radioactivity. Results are shown as the mean of duplicate determinations. For FIG. 6B, primary cultures of rat hepatocytes were incubated at 37° C. for 30 min with or without 20 ng/mL leptin followed by incubation at 37° C. for 4 h with 6 μg protein/mL ^125I-chylomicrons in the absence or presence of 0.5 mM oleate in Buffer A. The cells were then washed and the ^125I-chylomicrons bound to the cell surface were released into the media by incubation with 10 mM suramin. The media was recovered and the radioactivity was measured. Results are shown as the mean±SD of six determinations. […] The amount of ^125I-chylomicrons bound was determined, and results are shown as means±SD of triplicate (irrelevant) or quadruplicate (anti-LSR) determinations. […]

LSR β = molecular target: T1, LSR β (Homo sapiens, UniProt Q86X29); assay: 125I-leptin binding in CHO-K1 cells transiently transfected with LSR β; type: cell-based; conditions: transient transfection with LSR β plasmid; 10 ng/mL 125I-leptin
T1 construct: The full-length LSR α, α′, and β clones were reconstructed in pTracer-CMV2 vector; expressed in transfected cells; host or cells: CHO-K1, transient (Fugene), pTracer-CMV2
T1 sequence (Q86X29 1-581 isoform Q86X29-5): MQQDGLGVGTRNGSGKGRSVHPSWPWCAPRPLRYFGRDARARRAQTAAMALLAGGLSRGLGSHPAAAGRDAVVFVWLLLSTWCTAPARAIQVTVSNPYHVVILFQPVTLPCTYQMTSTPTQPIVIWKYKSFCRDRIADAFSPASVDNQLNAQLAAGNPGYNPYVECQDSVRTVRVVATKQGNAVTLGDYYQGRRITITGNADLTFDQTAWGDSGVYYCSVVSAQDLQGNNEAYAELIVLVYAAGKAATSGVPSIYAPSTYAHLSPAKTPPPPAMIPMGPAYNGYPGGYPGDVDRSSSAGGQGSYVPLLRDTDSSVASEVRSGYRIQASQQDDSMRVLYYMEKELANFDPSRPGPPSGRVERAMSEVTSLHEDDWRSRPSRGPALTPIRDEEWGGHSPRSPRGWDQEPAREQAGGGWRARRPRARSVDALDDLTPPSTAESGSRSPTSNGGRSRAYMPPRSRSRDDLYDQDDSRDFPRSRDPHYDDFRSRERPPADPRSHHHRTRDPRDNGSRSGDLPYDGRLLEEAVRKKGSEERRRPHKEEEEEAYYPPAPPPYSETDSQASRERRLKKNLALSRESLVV
Description: FIGS. 3A, 3B, 3C, and 3D show the effect of LSR subunit transfection on leptin binding and degradation in CHO-K1 cells. For FIG. 3A, CHO-K1 cells were transfected with increasing concentrations of the α, (□), α′ (▪) or β (◯) LSR plasmid, or vector alone (●) using Fugene transfection reagent. After 48 h, the cells were washed once in PBS and incubated at 37° C. for 2 h with 10 ng/mL of ^125I-leptin in DMEM containing 0.2% (w/v) BSA, 2 mM CaCl2 and 5 mM HEPES, pH 7.4 (Buffer A). The monolayers were washed and lysed with 0.1 N NaOH containing 0.24 mM EDTA, and the lysates were counted. The results are shown as the amount of cell-associated ^125I-leptin. For FIG. 3B, lysates were prepared from CHO-K1 wild type, stable transfectants of vector or LSR α′ subunit, and PLC, and separated on a 10% SDS-polyacrylamide gel under denaturing and reduced conditions. After transfer to nitrocellulose, Western blots were performed using anti-LSR 170 antibody (can also be done with the human equivalent, 93A). […] For FIGS. 3C and 3D, confluent monolayers of stable-transfected cell lines expressing LSR α′ subunit (▪) or vector alone (●) were washed once in PBS and incubated at 37° C. for 2 h with increasing concentrations of ^125I-leptin in Buffer A. The amount of cell-associated (FIG. 3C) and degraded (FIG. 3D) ^125I-leptin was then measured as described herein. […]

leptin: plasma protein of 16 kDa produced by adipocytes; recombinant human or mouse leptin, species depends on the experiment
binding of chylomicrons to rat hepatocytes (LSR): additive stimulatory effect
Leptin binding to CHO-K1 cells (LSR β): remained at levels similar to those seen with the vector alone
